Substrate: Nc1ncnc2c1ncn2[C@@H]1O[C@H](COP(=O)(O)OP(=O)(O)OP(=O)(O)O)[C@@H](O)[C@H]1O
Assay: purified protein
Type: biochemical, Archaeoglobus fulgidus
Details: Mg2+ ATP binding pocket

B1: afRio1 (Rio1 kinase) (Archaeoglobus fulgidus DSM 4304) (protein)
chain: MKDLKKIESYLDKLRIKEKDGEERKIYAEVLDGRTLKTLYKLSAKGYITAMGGVISTGKEANVFYADGVFDGKPVAMAVKIYRIETSEFDKMDEYLYGDERFDMRRISPKEKVFIWTEKEFRNLERAKEAGVSVPQPYTYMKNVLLMEFIGEDELPAPTLVELGRELKELDVEGIFNDVVENVKRLYQEAELVHADLSEYNIMYIDKVYFIDMGQAVTLRHPMAESYLERDVRNIIRFFSKYGVKADFEEMLKEVKGE
notes: full-length
  Km: 0.4 µM
  Vmax: 0.000156 µmol/min

Source: publication PMC3358306
